Assay results published in US20110243929A1.

Key:
[1] = target: cynomolgus ICOS (cynomolgus); experiment: flow cytometry, cynomolgus splenic naive T cells (CD4+ CD45RA+)
[2] = target: cynomolgus ICOS (cynomolgus); experiment: flow cytometry, cynomolgus mesenteric lymph node activated T cells (CD4+ CD45RA-)
[3] = target: cynomolgus ICOS (cynomolgus); experiment: flow cytometry, cynomolgus mesenteric lymph node naive T cells (CD4+ CD45RA+)
[4] = target: cynomolgus ICOS (cynomolgus); experiment: flow cytometry, cynomolgus splenic memory T cells (CD4+ CD45RA-)

cynomolgus ICOS (cynomolgus), sequence (A0A2K5 entry or part of it limits assumed): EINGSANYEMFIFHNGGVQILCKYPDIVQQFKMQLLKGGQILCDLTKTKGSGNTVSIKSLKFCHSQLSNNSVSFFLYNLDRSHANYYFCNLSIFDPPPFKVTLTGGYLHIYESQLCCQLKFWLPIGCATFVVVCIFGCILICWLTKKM

- % of gated cells in the positive quadrant [1]: 1.7%
- % of gated cells in the positive quadrant [2]: 1.64%
- % of gated cells in the positive quadrant [3]: 2.8%
- % of gated cells in the positive quadrant [4]: 2.4%
Substance: Isotype Control (antibody)
